The values below come from the supplement of paper PMC12042874.

A short description of the data set: amyloid nucleation score (Sup35N fusion, yeast selection) (log enrichment); library NNK1; higher = more nucleation; inactive = no reads after selection. The essentials:
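DiMSum was used to calculate nucleation scores as log enrichment of output over input reads, centred on the mode score of non-aggregating sequences. Sequences with fewer than 100 input reads were not scored. Input and output came from Illumina sequencing of plasmid inserts in psi-negative yeast expressing peptides of 20 random codons fused to Sup35N, induced 24 hours with 100 μM copper sulfate and then grown 7 days at 30°C on medium lacking adenine and uracil.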

± gives the uncertainty stated by the source.

The substance GAILENYALFESRTYFMLHC had an amyloid nucleation score of 0.383 ± 0.66.

In the case of ASSCLNSRFGCQRFLGYLWL, the amyloid nucleation score was 0.33 ± 0.39.

NKTMGMKSYFLGNIFYMYGW yielded an amyloid nucleation score of 5.215 ± 0.046.

Substance MVDPRVTS gave an amyloid nucleation score of -0.86 ± 1.1.

The substance FGLADITWKLPPQGSTWRLT registered an amyloid nucleation score of -0.108 ± 0.95.

For SGMCTYL, the amyloid nucleation score worked out at 0.513 ± 0.33.

FDYLCSGGMSTILSCITFPL showed an amyloid nucleation score of -0.37 ± 0.9.

With FFIGFIL, the amyloid nucleation score is 1.59 ± 0.21.

FNYFYVLYS displayed an amyloid nucleation score of 5.35 ± 0.074.

Turning to NPWLSNFSCK, the amyloid nucleation score was 0.244 ± 0.47.

With ENHSECNWRKCQQTLISHEC, the amyloid nucleation score was 0.487 ± 0.71.

As to DLSKFGKHFCLLMHYGFPNH, the amyloid nucleation score was -0.3 ± 0.28.

With GLKGDIWDMGYSFGWRDGDA, the amyloid nucleation score stood at 0.297 ± 0.51.

With RVVVCRWVDRYGIAASGAIT, the amyloid nucleation score came out at 0.643 ± 0.54.

Regarding GSCGKGHLSPRALLFTHSWQ, the amyloid nucleation score is -0.446 ± 0.61.

In turn, LVYLA displayed an amyloid nucleation score of -0.569 ± 0.87.

As for GKHGQDFNSYRRVWLKSYLC, the amyloid nucleation score amounted to 1.07 ± 0.52.

FVGGVSSERYLFGWLS gave an amyloid nucleation score of -1.51 ± 1.

Take CWASIEVLRRSDYGGFCHSV: the amyloid nucleation score stood at 0.826 ± 0.6.

In the case of FCDILQVLVCYGLLKRVLKV, the amyloid nucleation score is -0.296 ± 0.3.

Regarding CIDMFNLLNLKHASYWVVVY, the amyloid nucleation score is -0.563 ± 0.52.

In turn, GFMICVADTGTANSSYVDVF registered an amyloid nucleation score of -0.201 ± 0.36.

The substance WKIRKKA yielded an amyloid nucleation score of 0.155 ± 0.7.

With FCMWKGAFDRDYVGNGVAGS, the amyloid nucleation score entry was “inactive”.

TKIHLPYCYANLVNHSVQHK yielded an amyloid nucleation score of 0.704 ± 0.61.

Turning to LLHVYYFFISWPMFCMVYM, the amyloid nucleation score was -0.203 ± 0.72.

Regarding KKKYTEHISFTALHKLFTRR, the amyloid nucleation score came out at 0.189 ± 0.92.

In turn, GKSMYCYK returned an amyloid nucleation score of -0.96 ± 2.7.

For the substance AFTFGYTFQFYLLASTYMIR, the amyloid nucleation score entry was “inactive”.

Substance RTKCKASISNIPTRWYDP returned an amyloid nucleation score of -0.469 ± 1.2.

RHYGGAFQRLYRMSGPMT gave an amyloid nucleation score of -1.05 ± 0.96.

In the case of GGLKMTP, the amyloid nucleation score stood at 0.393 ± 0.25.

Consider VINRSQIRGHRAFSWVGPSL, for which the amyloid nucleation score worked out at 0.53 ± 0.38.

RNNIFFF returned an amyloid nucleation score of 7.399 ± 0.059.

Regarding HEGPCKRNCTGVLLRSARRH, the amyloid nucleation score is -0.049 ± 0.26.

For RYHSPEYTARTLMG, the amyloid nucleation score came to 0.264 ± 0.44.

The substance VLDFLYILCVTLANDFLKGW registered an amyloid nucleation score of 0.961 ± 0.76.

For IYLCCADFARIVMVTSTRWL, the amyloid nucleation score came out at 0.052 ± 0.5.

The substance SVVLMLKYRYMHLTGLWSWS displayed an amyloid nucleation score of 0.16 ± 0.46.

FNKYYMFEST yielded an amyloid nucleation score of -0.038 ± 0.33.

NDVRYLLDMDLLASSADYFM came in with an amyloid nucleation score of -0.732 ± 1.1.

On to KHSNLYIFPGVYFFQITSLY, for which the amyloid nucleation score was found to be 3.96 ± 0.088.

Substance TTFTRVTLICSPPVQAKLGR returned an amyloid nucleation score of 0.399 ± 0.27.

The substance GALFWVIPIMLLMRSGLLDP yielded an amyloid nucleation score of 0.498 ± 0.3.

In turn, YQQSCWVLYGTNLRYSNQSW registered an amyloid nucleation score of 1.74 ± 0.14.

Take RVLCICFEYINHRAGGSKSF: the amyloid nucleation score was -0.08 ± 0.95.

Consider NRVHKADHVTYY, for which the amyloid nucleation score entry is “inactive”.

RLYRWPIWWWVSLSEMGISQ displayed an amyloid nucleation score of -0.205 ± 0.35.

As for PALLEIQWSSCGV, the amyloid nucleation score is -0.02 ± 0.72.

Take SCSGSRMRELAAVYTVIIEY: the amyloid nucleation score is -1.04 ± 1.1.

Turning to GINNIYGLRYRHMPTSSIVA, the amyloid nucleation score is 1.88 ± 0.39.

Consider ICISSPVMMKAIPLPFEFSR, for which the amyloid nucleation score was -0.167 ± 0.43.

Turning to ALKLARG, the amyloid nucleation score is -0.019 ± 1.2.

For the substance FSIKHPLSSGSKISCVA, the amyloid nucleation score was -1.23 ± 1.7.

NCRFRVVVRKSGTLLPVWVP showed an amyloid nucleation score of 0.542 ± 1.

As for WRCRGCMWAHRAWGNSSCV, the amyloid nucleation score is -0.655 ± 0.98.

Substance NPNMVSRPCRVGRRPFDVGL yielded an amyloid nucleation score of -0.022 ± 0.45.
